From publication PMC10716376, “The assembly of the Mitochondrial Complex I Assembly complex uncovers a redox pathway coordination” (Nature Communications, 2023) come the findings set out here.

First the molecules themselves.
B6: ACAD9WT (mature ACAD9, residues 38-621) (enzyme, human, UniProt Q9H845 38-621, looked up)
chain: AFAKELFLGKIKKKEVFPFPEVSQDELNEINQFLGPVEKFFTEEVDSRKIDQEGKIPDETLEKLKSLGLFGLQVPEEYGGLGFSNTMYSRLGEIISMDGSITVTLAAHQAIGLKGIILAGTEEQKAKYLPKLASGEHIAAFCLTEPASGSDAASIRSRATLSEDKKHYILNGSKVWITNGGLANIFTVFAKTEVVDSDGSVKDKITAFIVERDFGGVTNGKPEDKLGIRGSNTCEVHFENTKIPVENILGEVGDGFKVAMNILNSGRFSMGSVVAGLLKRLIEMTAEYACTRKQFNKRLSEFGLIQEKFALMAQKAYVMESMTYLTAGMLDQPGFPDCSIEAAMVKVFSSEAAWQCVSEALQILGGLGYTRDYPYERILRDTRILLIFEGTNEILRMYIALTGLQHAGRILTTRIHELKQAKVSTVMDTVGRRLRDSLGRTVDLGLTGNHGVVHPSLADSANKFEENTYCFGRTVETLLLRFGKTIMEEQLVLKRVANILINLYGMTAVLSRASRSIRIGLRNHDHEVLLANTFCVEAYLQNLFSLSQLDKYAPENLDEQIKKVSQQILEKRAYICAHPLDRTC
notes: human ACAD9, mature form, residues 38-621; E. coli codon-optimised synthetic gene; Cloned into pET-21d(+); Plasmid details are in Supplementary Data 1; source: E. coli C43 (DE3), purified (HisTrap, dialysed in SEC buffer)

In one data set the target is VLCAD_(ACAD9) (human) (UniProt P49748). Put plainly: mass photometry; ACAD9 (or VLCAD) at 20-50 nM in 25 mM HEPES pH 7.5, 250 mM NaCl, or diluted in 4.8 uM ECSIT solution for complex formation.
Data set [1] has as its target B6. Put plainly: dynamic light scattering; 278 K, protein at 1-2 mg/ml; complexes reconstituted at molar ratio 1:1.25. Particulars: both partners purified.
Data set [2] deals with the molecule itself. Put plainly: cryo-EM structure; ACAD9WT-ECSIT_(CTER) reconstituted (molar ratio 1:1.25) and purified by gel filtration; 25 mM HEPES, 300 mM NaCl, 1 mM TCEP, pH 7.5; C2 symmetry imposed.
Data set [3] addresses T1, ECSIT_(CTER) (residues 221-431) (human, UniProt Q9BQ95 221-431).
T1 chain: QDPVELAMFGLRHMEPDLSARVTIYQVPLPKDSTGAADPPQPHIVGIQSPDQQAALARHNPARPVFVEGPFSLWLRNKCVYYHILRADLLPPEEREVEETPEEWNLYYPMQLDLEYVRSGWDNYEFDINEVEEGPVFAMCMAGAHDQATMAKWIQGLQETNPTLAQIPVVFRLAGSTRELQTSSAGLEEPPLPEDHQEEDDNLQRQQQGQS
Kind of data set: ITC.

Data set [4] concerns the molecule itself. Put plainly: mass photometry; ACAD9 (or VLCAD) at 20-50 nM in 25 mM HEPES pH 7.5, 250 mM NaCl, or diluted in 4.8 uM ECSIT solution for complex formation.

In the data set with VLCAD_(ACAD9) (human), “VLCAD_(ACAD9) (from UniProt P49748 72-655) (enzyme)” returned a stoichiometry N of 2.

B1: ECSIT_(CTER-W324A) (domain or fragment, human, UniProt Q9BQ95 221-431, looked up)
chain: QDPVELAMFGLRHMEPDLSARVTIYQVPLPKDSTGAADPPQPHIVGIQSPDQQAALARHNPARPVFVEGPFSLWLRNKCVYYHILRADLLPPEEREVEETPEEANLYYPMQLDLEYVRSGWDNYEFDINEVEEGPVFAMCMAGAHDQATMAKWIQGLQETNPTLAQIPVVFRLAGSTRELQTSSAGLEEPPLPEDHQEEDDNLQRQQQGQS
notes: human ECSIT, residues 221-431, W324A; also called ECSIT-W324A; ECSIT_(W324A); source: E. coli BL21 Star (DE3), purified (HisTrap, SEC)
As to B1, the binding result in data set [1] is on record as “binds”.

B2: ECSIT_(CTER-Y327A) (domain or fragment, human, UniProt Q9BQ95 221-431, looked up)
chain: QDPVELAMFGLRHMEPDLSARVTIYQVPLPKDSTGAADPPQPHIVGIQSPDQQAALARHNPARPVFVEGPFSLWLRNKCVYYHILRADLLPPEEREVEETPEEWNLAYPMQLDLEYVRSGWDNYEFDINEVEEGPVFAMCMAGAHDQATMAKWIQGLQETNPTLAQIPVVFRLAGSTRELQTSSAGLEEPPLPEDHQEEDDNLQRQQQGQS
notes: human ECSIT, residues 221-431, Y327A; also called ECSIT_(Y327A); source: E. coli BL21 Star (DE3), purified (HisTrap, SEC)
B2: in data set [1], the binding result is listed as “binds”.

B3: ECSIT_(CTER-Y327F) (domain or fragment, human, UniProt Q9BQ95 221-431, looked up)
chain: QDPVELAMFGLRHMEPDLSARVTIYQVPLPKDSTGAADPPQPHIVGIQSPDQQAALARHNPARPVFVEGPFSLWLRNKCVYYHILRADLLPPEEREVEETPEEWNLFYPMQLDLEYVRSGWDNYEFDINEVEEGPVFAMCMAGAHDQATMAKWIQGLQETNPTLAQIPVVFRLAGSTRELQTSSAGLEEPPLPEDHQEEDDNLQRQQQGQS
notes: human ECSIT, residues 221-431, Y327F; also called ECSIT_(Y327F); source: E. coli BL21 Star (DE3), purified (HisTrap, SEC)
Consider B3, for which, in data set [1], the binding result is reported as “binds”.

B4: ECSIT_(CTER-Y328A) (domain or fragment, human, UniProt Q9BQ95 221-431, looked up)
chain: QDPVELAMFGLRHMEPDLSARVTIYQVPLPKDSTGAADPPQPHIVGIQSPDQQAALARHNPARPVFVEGPFSLWLRNKCVYYHILRADLLPPEEREVEETPEEWNLYAPMQLDLEYVRSGWDNYEFDINEVEEGPVFAMCMAGAHDQATMAKWIQGLQETNPTLAQIPVVFRLAGSTRELQTSSAGLEEPPLPEDHQEEDDNLQRQQQGQS
notes: human ECSIT, residues 221-431, Y328A; also called ECSIT_(Y328A); source: E. coli BL21 Star (DE3), purified (HisTrap, SEC)
With B4, in data set [1], the binding result is recorded as “binds”.

B5: ECSIT_(CTER-Y328F) (domain or fragment, human, UniProt Q9BQ95 221-431, looked up)
chain: QDPVELAMFGLRHMEPDLSARVTIYQVPLPKDSTGAADPPQPHIVGIQSPDQQAALARHNPARPVFVEGPFSLWLRNKCVYYHILRADLLPPEEREVEETPEEWNLYFPMQLDLEYVRSGWDNYEFDINEVEEGPVFAMCMAGAHDQATMAKWIQGLQETNPTLAQIPVVFRLAGSTRELQTSSAGLEEPPLPEDHQEEDDNLQRQQQGQS
notes: human ECSIT, residues 221-431, Y328F; also called ECSIT_(Y328F); source: E. coli BL21 Star (DE3), purified (HisTrap, SEC)
For the molecule B5, the binding result in data set [1] is reported as “binds”. As for B6, in data set [2], the “stoichiometry N” value was 2. Also, the Kd in data set [3] worked out at 1450 nM.

B7: ACAD9_(A184S/SR194TS) (enzyme, human, UniProt Q9H845 38-621, looked up)
chain: AFAKELFLGKIKKKEVFPFPEVSQDELNEINQFLGPVEKFFTEEVDSRKIDQEGKIPDETLEKLKSLGLFGLQVPEEYGGLGFSNTMYSRLGEIISMDGSITVTLAAHQAIGLKGIILAGTEEQKAKYLPKLASGEHIAAFCLTEPSSGSDAASIRTSATLSEDKKHYILNGSKVWITNGGLANIFTVFAKTEVVDSDGSVKDKITAFIVERDFGGVTNGKPEDKLGIRGSNTCEVHFENTKIPVENILGEVGDGFKVAMNILNSGRFSMGSVVAGLLKRLIEMTAEYACTRKQFNKRLSEFGLIQEKFALMAQKAYVMESMTYLTAGMLDQPGFPDCSIEAAMVKVFSSEAAWQCVSEALQILGGLGYTRDYPYERILRDTRILLIFEGTNEILRMYIALTGLQHAGRILTTRIHELKQAKVSTVMDTVGRRLRDSLGRTVDLGLTGNHGVVHPSLADSANKFEENTYCFGRTVETLLLRFGKTIMEEQLVLKRVANILINLYGMTAVLSRASRSIRIGLRNHDHEVLLANTFCVEAYLQNLFSLSQLDKYAPENLDEQIKKVSQQILEKRAYICAHPLDRTC
notes: human ACAD9, residues 38-621, A184S and SR194TS combined (mimics the VLCAD gatekeeper loop); source: E. coli C43 (DE3), purified (HisTrap, dialysed in SEC buffer)
Consider B7, for which the “stoichiometry N” value in data set [4] amounted to 2.

B8: ACAD9_(VLCAD) (enzyme, human, UniProt Q9H845 38-621, looked up)
chain: AFAKELFLGKIKKKEVFPFPEVSQDELNEINQFLGPVEKFFTEEVDSRKIDQEGKIPDETLEKLKSLGLFGLQVPEEYGGLGFSNTMYSRLGEIISMDGSITVTLAAHQAIGLKGIILAGTEEQKAKYLPKLASGEHIAAFCLTEPASGSDAASIRSRATLSEDKKHYILNGSKVWITNGGLANIFTVFAKTEVVDSDGSVKDKITAFIVERDFGGVTNGKPEDKLGIRGSNTCEVHFENTKIPVENILGEVGDGFKVAMNILNSGRFSMGSVVAGLLKRLIEMTAEYACTRKQFNKRLSEFGLIQEKFALMAQKAYVMESMTYLTAGMLDQPGFPDCSIEAAMVKVFSSEAAWQCVSEALQIMGGMGFMRDYPYERILRDTRILLIFEGTNEILRMYIALTGLQHAGRILTTRIHELKQAKVSTVMDTVGRRLRDSLGRTVDLGLTGNHGVVHPSLADSANKFEENTYCFGRTVETLLLRFGKTIMEEQLVLKRVANILINLYGMTAVLSRASRSIRIGLRNHDHEVLLANTFCVEAYLQNLFSLSQLDKYAPENLDEQIKKVSQQILEKRAYICAHPLDRTC
notes: human ACAD9, residues 38-621, residues 401-407 LGGLGYT replaced by the corresponding VLCAD residues 437-443 MGGMGFM; also called ACAD9 mutated to mimic VLCAD; source: E. coli C43 (DE3), purified (HisTrap, dialysed in SEC buffer)
Regarding B8, the “stoichiometry N” value in data set [4] amounted to 2.

B9: ACAD9_(S191A) (enzyme, human, UniProt Q9H845 38-621, looked up)
chain: AFAKELFLGKIKKKEVFPFPEVSQDELNEINQFLGPVEKFFTEEVDSRKIDQEGKIPDETLEKLKSLGLFGLQVPEEYGGLGFSNTMYSRLGEIISMDGSITVTLAAHQAIGLKGIILAGTEEQKAKYLPKLASGEHIAAFCLTEPASGSDAAAIRSRATLSEDKKHYILNGSKVWITNGGLANIFTVFAKTEVVDSDGSVKDKITAFIVERDFGGVTNGKPEDKLGIRGSNTCEVHFENTKIPVENILGEVGDGFKVAMNILNSGRFSMGSVVAGLLKRLIEMTAEYACTRKQFNKRLSEFGLIQEKFALMAQKAYVMESMTYLTAGMLDQPGFPDCSIEAAMVKVFSSEAAWQCVSEALQILGGLGYTRDYPYERILRDTRILLIFEGTNEILRMYIALTGLQHAGRILTTRIHELKQAKVSTVMDTVGRRLRDSLGRTVDLGLTGNHGVVHPSLADSANKFEENTYCFGRTVETLLLRFGKTIMEEQLVLKRVANILINLYGMTAVLSRASRSIRIGLRNHDHEVLLANTFCVEAYLQNLFSLSQLDKYAPENLDEQIKKVSQQILEKRAYICAHPLDRTC
notes: human ACAD9, residues 38-621, S191A; One FAD per protomer in the cryo-EM structure; source: E. coli C43 (DE3), purified (HisTrap, dialysed in SEC buffer)
As to B9, the “stoichiometry N” value in data set [4] was 2.

B10: VLCADWT (very long chain acyl-CoA dehydrogenase, res. 72-655) (enzyme, human, UniProt P49748 72-655, looked up)
chain: SFAVGMFKGQLTTDQVFPYPSVLNEEQTQFLKELVEPVSRFFEEVNDPAKNDALEMVEETTWQGLKELGAFGLQVPSELGGVGLCNTQYARLVEIVGMHDLGVGITLGAHQSIGFKGILLFGTKAQKEKYLPKLASGETVAAFCLTEPSSGSDAASIRTSAVPSPCGKYYTLNGSKLWISNGGLADIFTVFAKTPVTDPATGAVKEKITAFVVERGFGGITHGPPEKKMGIKASNTAEVFFDGVRVPSENVLGEVGSGFKVAMHILNNGRFGMAAALAGTMRGIIAKAVDHATNRTQFGEKIHNFGLIQEKLARMVMLQYVTESMAYMVSANMDQGATDFQIEAAISKIFGSEAAWKVTDECIQIMGGMGFMKEPGVERVLRDLRIFRIFEGTNDILRLFVALQGCMDKGKELSGLGSALKNPFGNAGLLLGEAGKQLRRRAGLGSGLSLSGLVHPELSRSGELAVRALEQFATVVEAKLIKHKKGIVNEQFLLQRLADGAIDLYAMVVVLSRASRSLSEGHPTAQHEKMLCDTWCIEAAARIREGMAALQSDPWQQELYRNFKSISKALVERGGVVTSNPLGF
notes: human very long-chain acyl-CoA dehydrogenase (VLCAD), residues 72-655; plasmid ACADVL from Addgene #38838; VLCAD-related constructs were cloned into pNIC28-BSA; also called ACADVL; source: E. coli Rosetta 2 (DE3), purified (HisTrap, SEC)
In the case of B10, in data set [4], the “stoichiometry N” value was determined as 2.
